Biological target: the molecule itself
Experiment: SEC-SAXS; 7.4 mg/ml on Superdex 200 Increase 5/150, RT; 10 mM Tris HCl pH 7.8, 0.1 M NaCl, 0.1 M glycine, 1% glycerol, with and without 2 mM CaCl2; Bayesian molecular weight estimate

B1: soluble human transmembrane prolyl 4-hydroxylase (P4H-TM), residues 88 to 502 with an N-terminal His-tag (enzyme, UniProt Q9NXG6-1 88-502, looked up)
chain: DESSDPGPQHRAQGPGPEPTLGPLTRLEGIKVGHERKVQLVTDRDHFIRTLSLKPLLFEIPGFLTDEECRLIIHLAQMKGLQRSQILPTEEYEEAMSTMQVSQLDLFRLLDQNRDGHLQLREVLAQTRLGNGWWMTPESIQEMYAAIKADPDGDGVLSLQEFSNMDLRDFHKYMRSHKAESSELVRNSHHTWLYQGEGAHHIMRAIRQRVLRLTRLSPEIVELSEPLQVVRYGEGGHYHAHVDSGPVYPETICSHTKLVANESVPFETSCRYMTVLFYLNNVTGGGETVFPVADNRTYDEMSLIQDDVDLRDTRRHCDKGNLRVKPQQGTAVFWYNYLPDGQGWVGDVDDYSLHGGCLVTRGTKWIANNWINVDPSRARQALFQQEMARLAREGGTDSQPEWALDRAYRDARVEL
modifications: N-linked glycans at Asn368 and Asn382
notes: human transmembrane prolyl 4-hydroxylase (P4H-TM), isoform 1 (502 residues), residues 88-502; lacks the short cytoplasmic region and the transmembrane helix; then six histidines and residues 88-502; Calculated mass 48.3 kDa; also called soluble part of human P4H-TM; isoform 1; not shown: His6, N-terminal, kept
stoichiometry N: 2

From paper PMC7948501, “Structure of transmembrane prolyl 4-hydroxylase reveals unique organization of EF and dioxygenase domains” (The Journal of Biological Chemistry, 2020)
